Here are results for 5 molecules from article PMC7849420 (Virology, 2021).

Changes are numbered by the printed parent chain.

What all share (assay): ELISA
Experiment [1] deals with recombinant truncated SARS-CoV nucleocapsid (N) protein AA133-422 (SARS-CoV, UniProt P59595).
In experiment [2] the target is recombinant truncated SARS-CoV-2 nucleocapsid (N) protein AA133-419 (SARS-CoV-2, UniProt P0DTC9).
The target in experiment [3] is recombinant truncated HuCoV-NL63 nucleocapsid (N) protein AA100-377 (HuCoV-NL63, UniProt Q6Q1R8).
For experiment [4], the target named is recombinant truncated SARS-CoV nucleocapsid (N) protein AA133-422 (SARS-CoV, UniProt P59595 133-422).
Experiment [5] has as its target T1, recombinant truncated HuCoV-NL63 nucleocapsid (N) protein AA100-377 (HuCoV-NL63, UniProt Q6Q1R8 100-377).
T1 sequence: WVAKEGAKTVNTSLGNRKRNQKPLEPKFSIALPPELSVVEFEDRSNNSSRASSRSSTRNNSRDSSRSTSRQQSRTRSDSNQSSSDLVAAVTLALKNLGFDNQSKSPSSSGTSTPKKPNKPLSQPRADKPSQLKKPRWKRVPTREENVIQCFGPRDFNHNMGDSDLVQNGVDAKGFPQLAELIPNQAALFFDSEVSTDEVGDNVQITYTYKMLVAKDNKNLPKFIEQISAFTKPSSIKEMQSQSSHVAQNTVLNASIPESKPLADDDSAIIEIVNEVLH

Experiment [6] has as its target recombinant truncated SARS-CoV-2 nucleocapsid (N) protein AA133-419 (SARS-CoV-2, UniProt P0DTC9 133-419).

B1: mBG21 mouse monoclonal antibody against SARS-CoV-2 nucleocapsid protein (antibody, V domains shown)
VH: QIQLVQSGPELKKPGETVKISCKASGYTFTDYSMHWVKQAPGKGSKWMGWINTETGEPTYADDFKGRFAFSLETSASTAYLQINNLKNEDTATYFCALRRWGQGTLVTVSA
VL: IVMTQTPKFLLVSAGDRVTITCKASQSVSNDVAWFQQKPGQSPKLLIYFASNRYTGVPDRFTGSGYGTDFTFTITTVQAEDLAVYFCQQDYSSPWTFGGGTKLEIK
For the molecule B1, the “Corected Average (background-corrected A450)” value (“Corected Average” below) was found to be 0.302 absorbance at 450nm in experiment [1], 0.743 absorbance at 450nm in experiment [2] and 0.339 absorbance at 450nm in experiment [3].

B2: mBG22 mouse monoclonal antibody against SARS-CoV-2 nucleocapsid protein (antibody, V domains shown)
VH: B1 VH
VL: B1 VL
With B2, the “Corected Average” value in experiment [1] is 0.779 absorbance at 450nm; in experiment [2], 0.754 absorbance at 450nm; in experiment [3], 0.339 absorbance at 450nm.

B3: mBG17 mouse monoclonal antibody against SARS-CoV-2 nucleocapsid protein (antibody, V domains shown)
VH: EVKLEESGGGLVQPGGSMKFSCVASGFTFSDYWMNWVRQSPDKGLEWVAEIRLKSNNYATHYAASVKGRFTISRDDSKSSVYLQMNNLRAEDSGIYYCTRSAMDYWGQGTSVTVSS
VL: DIVMSQSPSSLAVSVGEKITMSCKSSQSLLYTSDQKNYLAWFQQKPGQSPKLLIFWASTRDSGVPDRFTGSGSGTDFTLTISSVKAEDLAVYYCQQFYNYPRTFGGGTKLEIK
B3: the “Corected Average” value turned out to be 0.872 absorbance at 450nm in experiment [4], 0.365 absorbance at 450nm in experiment [5] and 0.832 absorbance at 450nm in experiment [6].

B4: mBG67 mouse monoclonal antibody against SARS-CoV-2 nucleocapsid protein (antibody, V domains shown)
VH: EVQLVESGGGLVQPGGSLKLSCAASGFTFSNYGMSWVRQTPDKRLELVATINRNGGSTYYLDSVKVRFTISRDNAKSTLFLQLSSLKSDDTAMYYCARIYDFDEDYFDVWGAGTTVTVSS
VL: QIVLTQSPAIMSASLGERVTMTCTASSSVSSSYLHWYQQKPGSSPKLWIYSTSNLASGVPARFSGSGSGTSYSLTISSMEAEDAATYYCLQYHRSPWTFGGGTKLEIK
Take B4: the “Corected Average” value was found to be 0.094 absorbance at 450nm in experiment [4] and 0.861 absorbance at 450nm in experiment [6].

B5: mBG86 mouse monoclonal antibody against SARS-CoV-2 nucleocapsid protein (antibody, V domains shown)
VH: B4 VH with L83M, D89E, F102Y
VL: B4 VL
For B5, in experiment [6], the “Corected Average” value is 0.806 absorbance at 450nm.
